Results: patent US20090048196A1 (University of California, published 2009)

Target: N-terminal alkaline phosphatase-tagged RBP (AP-RBP fusion protein) (human, UniProt P02753 19-201)
Assay: AP-RBP binding to live COS-1 cells transfected with bovine STRA6, AP activity read-out
Description: The cells were then washed twice with PBS⁺ and fixed in fresh 2% formaldehyde in PBS⁺ at room temperature for 10 min. After 3 more PBS washes, the cells were heated in PBS for 1 h at 65° C. […] The reaction was stopped by washing cells twice with PBS containing 1 mM CaCl₂. The cells were then lysed in 200 μl of cold PBS containing 1% Triton X-100 and protease inhibitors per well. The cell lysates were centrifuged at 3,000 g at 4° C. for 5 min. The supernatants were removed and heated at 65° C. for 1 h. Twenty microliters of the heated lysate were mixed with 200 μl of pNPP (Sigma) and incubated at 37° C. for 1 h for the AP color reaction. The reactions were stopped by adding 50 μl 3 M NaOH and were transferred to a 96-well plate for reading in a microplate reader at 405 nm.

B1: bovine STRA6 (wild-type) (receptor)
chain: MSTQAAGNQTSSGATDSEDSYDSWYIDEPQGGQELQPEGLVPSCQPNVPPSLYHTCLAVLSILVLFLLAMLVRRRQLWPRCGHGRPGLPSPVDFLTGDRPRTVPAAVFMVLFSSLCLLLPTEDPLPFLSLASPPGRDGEAETSRGPWKILALLYYPALYYPLAACATVRHGAAHLLGSLLSWAHLGVQVWQRAECPESPKIYKYYSLLASLPLLLGLGFLSLWYPVQLVRSFGHGAATGSKGLQSSYSEEYLRTLLCQKKLKSSSHTCKRGFASQAWMYFRHSVYIPQQGFRLPLKLVLSVTLTGTAIYQVALLLLVGVVPTIQKVRAGITTDVSYLLAGFGIVLSEDRQEVVELVKHHLWALEVCYISALVLSCLLTFLMLVHSLVTHRTNLRALHRGGALDIGPLTQSPRPSRQAIFCWMSFTAYQTAFTCLGLLVQQILFFLGTLTLAFLVFMPMLHGRNLLLLHYLKSSWPFWLTLALAVTLQNAAAHWAFLDTHHGRPGLTNRRALYAATFLLFPVNVLVGTMVAAWRVLLSALYNAVHLGRMDLSLLPLRAATLDPGYHTYCNFLRMEASQSHPAATAFCALLLRTQRPKPRATPQDGLRLGEEEEGIQLLQTKDLVAKGAGPRARQGRARWGLAYTLLHNPALQAFRKTALPGARPNGAQP
notes: also called RBP receptor; WT
Kd: 59 nM
